Experimental data published in patent US20200308267A1 (Boehringer Ingelheim, published 2020).
Positions count from the first letter of the chain named. Where two headings read alike, the source gives them in different places.

B1: VEGFBII037 (VHH)
VHH: DVQLVESGGGLVQPGGSLRLSCAASGRTFSSYSMGWFRQAPGKEREFVVAISKGGYKYDAVSLEGRFTISRDNAKNTVYLQMNSLRPEDTAVYYCASSRAYGSSRLRLADTYEYWGQGTLVTVSS
B2: VEGFBII024 (VHH, not shown: small tags and cut ends)
chain: EVQLVESGGGLVQTGDSLRLSCEVSGRTFSSYSMGWFRQAQGKEREFVVAISKGGYKYDSVSLEGRFTISKDNAKNTVYLQINSLKPEDTAVYYCASSRAYGSSRLRLADTYEYWGQGTQVTVSSGGGGSGGGGSGGGGSGGGGSGGGGSGGGGSGGGGSGGGGSEVQLVESGGGLVQAGGSLRLSCTASGSAFKSYRMGWFRRTPGKEDEFVASISWTYGSTFYADSVKGRFTMSRDKAKNAGYLQMNSLKPEDTALYYCAAGAQSDRYNIRSYDYWGQGTQVTVSS
B3: VEGFBII021 (VHH, not shown: small tags and cut ends)
chain: EVQLVESGGGLVQTGDSLRLSCEVSGRTFSSYSMGWFRQAQGKEREFVVAISKGGYKYDSVSLEGRFTISKDNAKNTVYLQINSLKPEDTAVYYCASSRAYGSSRLRLADTYEYWGQGTQVTVSSGGGGSGGGGSGGGGSGGGGSGGGGSGGGGSGGGGSGGGGSEVQLVESGGGLVQPGGSLRLSCVASGIRFMSMAWYRQAPGKHRELVARISSGGTTAYVDSVKGRFTISRDNSKNTVYLQMNSLKAEDTAVYYCNTFSSRPNPWGAGTQVTVSS
B4: VEGFBII23A06 (VHH, not shown: small tags and cut ends)
VHH: EVQLVESGGGLVQPGDSLKLSCAFSGRTFSSYSMGWFRQAQGKEREFVVAISSGGFIYDAVSLEGRFTISRDNTKNTVYLQTPSLKPEDTAVYYCAASRAYGSSRLRLADTYDYWGQGTQVTVSS
notes: also purified from E. coli TG1; also called VEGFBII23A6; 23A6
B5: VEGFBII24C04 (VHH, not shown: small tags and cut ends)
VHH: B4 VHH with A23V, F24A, F29S, F56Y, A60S, E64Q
notes: also purified from E. coli TG1; also called VEGFBII24C4
B6: VEGFBII010 (VHH, not shown: small tags and cut ends)
chain: EVQLVESGGGLVQTGDSLRLSCEVSGRTFSSYSMGWFRQAQGKEREFVVAISKGGYKYDSVSLEGRFTISKDNAKNTVYLQINSLKPEDTAVYYCASSRAYGSSRLRLADTYEYWGQGTQVTVSSGGGGSGGGGSGGGGSGGGGSGGGGSGGGGSGGGGSEVQLVESGGGLVQTGDSLRLSCEVSGRTFSSYSMGWFRQAQGKEREFVVAISKGGYKYDSVSLEGRFTISKDNAKNTVYLQINSLKPEDTAVYYCASSRAYGSSRLRLADTYEYWGQGTQVTVSS
B7: VEGFBII025 (VHH, not shown: small tags and cut ends)
chain: EVQLVESGGGLVQAGGSLRLSCAASGRTFSNYAMGWFRQAPGKERVLVADISSSGINTYVADAVKGRFTISRDNAKNTVYLQMNSLKPEDTAVYYCAASAWWYSQMARDNYRYWGQGTQVTVSSGGGGSGGGGSGGGGSGGGGSGGGGSGGGGSGGGGSGGGGSEVQLVESGGGLVQTGDSLRLSCEVSGRTFSSYSMGWFRQAQGKEREFVVAISKGGYKYDSVSLEGRFTISKDNAKNTVYLQINSLKPEDTAVYYCASSRAYGSSRLRLADTYEYWGQGTQVTVSS
B8: VEGFBII023 (VHH, not shown: small tags and cut ends)
chain: EVQLVESGGGLVQTGDSLRLSCEVSGRTFSSYSMGWFRQAQGKEREFVVAISKGGYKYDSVSLEGRFTISKDNAKNTVYLQINSLKPEDTAVYYCASSRAYGSSRLRLADTYEYWGQGTQVTVSSGGGGSGGGGSGGGGSGGGGSGGGGSGGGGSGGGGSGGGGSEVQLVESGGGLVQAGGSLRLSCAASGRTFSNYAMGWFRQAPGKERVLVADISSSGINTYVADAVKGRFTISRDNAKNTVYLQMNSLKPEDTAVYYCAASAWWYSQMARDNYRYWGQGTQVTVSS
B9: VEGFBII23B04 (VHH, not shown: small tags and cut ends)
VHH: EVQLVESGGGLVQTGDSLRLSCEVSGRTFSSYSMGWFRQAQGKEREFVVAISKGGYKYDSVSLEGRFTISKDNAKNTVYLQINSLKPEDTAVYYCASSRAYGSSRLRLADTYEYWGQGTQVTVSS
notes: also purified from E. coli TG1; also called VEGFBII23B4; VEGFBII23B04 (wt)
B10: VEGFBII038 (VHH)
VHH: B1 VHH with M82I
B11: VEGFBII42A05 (VHH, not shown: small tags and cut ends)
VHH: EVQLVESGGGLVQPGDSLKLSCAFSGRTFSSYSMGWFRQAQGKEREFVVAISSSGGYIYDSVSLEGRFTISRDNTKNTVYLQMPSLKPEDTADYYCAASRAYGSSRLRLADTYDYWGQGTQVTVSS
B12: VEGFBII56E11 (VHH, not shown: small tags and cut ends)
VHH: B11 VHH with M83T, T91A
B13: VEGFBII62A09 (VHH, not shown: small tags and cut ends)
VHH: B11 VHH with G10D, F24A, M83T, D93V
B14: VEGFBII60A09 (VHH, not shown: small tags and cut ends)
VHH: B11 VHH with K76R, M83T
B15: VEGFBII62D10 (VHH, not shown: small tags and cut ends)
VHH: B11 VHH with G8E, P14A, K19R, F24A, G56N, I58K, M83I, P84N, D93V, A110G
B16: VEGFBII022 (VHH, not shown: small tags and cut ends)
chain: EVQLVESGGGLVQTGDSLRLSCEVSGRTFSSYSMGWFRQAQGKEREFVVAISKGGYKYDSVSLEGRFTISKDNAKNTVYLQINSLKPEDTAVYYCASSRAYGSSRLRLADTYEYWGQGTQVTVSSGGGGSGGGSEVQLVESGGGLVQPGGSLRLSCVASGIRFMSMAWYRQAPGKHRELVARISSGGTTAYVDSVKGRFTISRDNSKNTVYLQMNSLKAEDTAVYYCNTFSSRPNPWGAGTQVTVSS

Assays:
[1] = target: VEGF; assay: cell-based or functional assay
[2] = target: VEGF; assay: cell-based or functional assay; remark: listed apart in the source
[3] = target: VEGF; assay: cell-based or functional assay; remark: listed apart in the source
[4] = target: VEGF; assay: cell-based or functional assay; remark: listed apart in the source
[5] = target: T1, recombinant human VEGF165 (human, UniProt P15692-4 27-191, biotinylated (Sulfo-NHS-LC-Biotin) in the competition assays); assay: SPR Biacore T100, VEGF165 chip, Two State Reaction fit
T1 construct: also called hVEGF165; rhVEGF165
Method: Samples are injected for 2 min and allowed to dissociate up to 20 min at a flow rate of […]. In between sample injections, the chip surface is regenerated with 100 mM HCl. HBS-EP+(Hepes buffer pH7.4+EDTA) is used as running buffer. Binding curves are fitted using a Two State Reaction model by Biacore T100 Evaluation Software v2.0.1.
^{(a)}Heterogeneous binding curve resulting in no 1:1 fit, curves are fitted using a Two State Reaction model by Biacore T100 Evaluation Software v2.0.1

[6] = target: T1, recombinant human VEGF165; assay: Biacore, periplasmic extract, VEGF165 chip, two phase decay fit; parameters: unit not given here
Method: Dissociation rates of inhibitory VHHs are analyzed on Biacore (Biacore T100 instrument, GE Healthcare). HBS-EP+ buffer is used as running buffer and experiments are performed at 25° C. […] After immobilization, surfaces are deactivated with 10 min injection of 1 M ethanolamine pH8.5. A reference surface is activated and deactivated with respectively EDC/NHS and ethanolamine. Periplasmic extracts of VHHs are injected at a 10-fold dilution in running buffer for 2 min at 45 μl/min and allowed to dissociate for 10 or 15 min. Between different samples, the surfaces are regenerated with regeneration buffer. Data are double referenced by subtraction of the curves on the reference channel and of a blank running buffer injection. […] is evaluated by fitting a two phase decay model in the Biacore T100 Evaluation software v2.0.1.

[7] = target: T2, recombinant mouse VEGF164 (mouse, UniProt Q00731-2 27-190, biotinylated in the AlphaScreen); assay: binding ELISA, coated rmVEGF164
T2 construct: also called mVEGF164; rmVEGF164
T2 sequence (looked up): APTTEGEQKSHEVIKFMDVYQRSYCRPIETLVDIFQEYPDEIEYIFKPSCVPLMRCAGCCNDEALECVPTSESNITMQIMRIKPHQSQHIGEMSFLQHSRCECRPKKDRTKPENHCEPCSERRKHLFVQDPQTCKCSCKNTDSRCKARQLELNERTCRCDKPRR
Method: Cross-reactivity to mouse VEGF164 is determined using a binding ELISA. […] Wells are blocked with a casein solution (1% in PBS). […] A mouse VEGF164 reactive mAb is included as positive control.

[8] = target: VEGF; assay: cell-based or functional assay; remark: listed apart in the source

VEGF, sequence (P15692 whole entry): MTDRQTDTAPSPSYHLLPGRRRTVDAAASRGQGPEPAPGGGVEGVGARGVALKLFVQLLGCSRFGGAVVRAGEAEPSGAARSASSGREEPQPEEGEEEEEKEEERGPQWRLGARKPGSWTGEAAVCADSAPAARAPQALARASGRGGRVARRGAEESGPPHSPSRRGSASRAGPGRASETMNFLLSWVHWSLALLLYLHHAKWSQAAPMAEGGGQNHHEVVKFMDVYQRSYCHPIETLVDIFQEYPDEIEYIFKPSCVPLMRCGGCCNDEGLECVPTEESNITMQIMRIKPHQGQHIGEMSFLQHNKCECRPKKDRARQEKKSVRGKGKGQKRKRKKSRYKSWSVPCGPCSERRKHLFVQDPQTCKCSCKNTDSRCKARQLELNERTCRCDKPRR

Row | Binder | HUVEC proliferation, % inhibition [2] [%] | HUVEC proliferation, IC50 [2] [nM] | HUVEC Erk phosphorylation, % inhibition [3] [%] | HUVEC Erk phosphorylation, IC50 [3] [nM] | kd(fast) [6] | kd(slow) [6] | other results
1 | B1 |  |  |  |  |  |  | HUVEC proliferation, % inhibition [1]: 78%; HUVEC proliferation, IC50 [1]: 1.54 nM
2 | B2 | 96 | 0.38 | 94 | 0.23 |  |  | 
3 | B3 | 98 | 0.4 | 103 | 0.21 |  |  | 
4 | B4 |  |  |  |  | 0.017 | 3.7e-05 | HUVEC proliferation, % inhibition [4]: 73%; HUVEC proliferation, IC50 [4]: 4.29 nM; ka1 [5]: 420000 M⁻¹ s⁻¹; kd1 [5]: 0.057 s⁻¹
5 | B5 |  |  |  |  | 0.013 | 3.4e-05 | HUVEC proliferation, % inhibition [4]: 79%; HUVEC proliferation, IC50 [4]: 3.8 nM; binding result [7]: no binding (tested: 500 nM); ka1 [5]: 320000 M⁻¹ s⁻¹; kd1 [5]: 0.026 s⁻¹
6 | B6 | 95 | 0.22 | 92 | 0.19 |  |  | 
7 | B7 | 104 | 0.41 | 99 | 0.23 |  |  | 
8 | B8 | 98 | 0.52 | 100 | 0.25 |  |  | 
9 | B9 |  |  |  |  | 0.0088 | 4e-05 | HUVEC proliferation, % inhibition [4]: 91%; HUVEC proliferation, IC50 [4]: 0.36 nM; HUVEC Erk phosphorylation, IC50 [8]: 0.37 nM; HUVEC proliferation, % inhibition [1]: 92%; HUVEC proliferation, IC50 [1]: 0.68 nM; ka1 [5]: 210000 M⁻¹ s⁻¹; kd1 [5]: 0.0086 s⁻¹
10 | B10 |  |  |  |  |  |  | HUVEC proliferation, % inhibition [1]: 92%; HUVEC proliferation, IC50 [1]: 0.6 nM
11 | B11 |  |  |  |  | 0.016 | 0.00034 | 
12 | B12 |  |  |  |  | 0.033 | 0.00014 | 
13 | B13 |  |  |  |  | 0.041 | 0.00011 | 
14 | B14 |  |  |  |  | 0.037 | 9.3e-05 | 
15 | B15 |  |  |  |  | 0.019 | 0.00016 | 
16 | B16 | 100 | 0.34 | 94 | 0.18 |  |  | 
